Results: US20230322957A1 (ENGMAB SARL, published 2023)

T1: human BCMA on the cell surface (human, UniProt Q02223 1-184)
T1 sequence (looked up): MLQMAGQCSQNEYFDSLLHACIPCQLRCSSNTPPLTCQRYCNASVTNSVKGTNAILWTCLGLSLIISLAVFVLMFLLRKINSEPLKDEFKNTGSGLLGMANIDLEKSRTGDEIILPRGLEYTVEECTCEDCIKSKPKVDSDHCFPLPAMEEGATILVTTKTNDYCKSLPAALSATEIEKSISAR


What was measured:
Assay in all cases: cell-based or functional assay
[1] = molecular target: T1, human BCMA on the cell surface
[2] = molecular target: T1, human BCMA on the cell surface; remark: listed apart in the source
[3] = molecular target: T1, human BCMA on the cell surface; remark: listed apart in the source
[4] = molecular target: T1, human BCMA on the cell surface; remark: listed apart in the source
[5] = molecular target: T1, human BCMA on the cell surface; remark: listed apart in the source
[6] = molecular target: T1, human BCMA on the cell surface; remark: listed apart in the source

Binder | EC50 redirected T-cell killing of RPMI-8226 cells (LDH release), Donor 2 [1] | EC50 redirected T-cell killing of RPMI-8226 cells (LDH release), Donor 3 [1] | EC50 redirected T-cell killing of RPMI-8226 cells (LDH release), Donor 4 [1] | EC50 redirected T-cell killing of RPMI-8226 cells (LDH release), Donor 5 [1] | EC50 redirected T-cell killing of H929 cells (LDH release), Donor 1 [2] | EC50 redirected T-cell killing of H929 cells (LDH release), Donor 3 [2] | EC50 redirected T-cell killing of H929 cells (LDH release), Donor 4 [2] | EC50 redirected T-cell killing of H929 cells (LDH release), Donor 5 [2] | EC50 redirected T-cell killing of L363 cells (LDH release), Donor 1 [3] | EC50 redirected T-cell killing of L363 cells (LDH release), Donor 2 [3] | EC50 redirected T-cell killing of L363 cells (LDH release), Donor 3 [3] | EC50 redirected T-cell killing of L363 cells (LDH release), Donor 4 [3] | EC50 redirected T-cell killing of L363 cells (LDH release), Donor 5 [3] | Lysis of JJN-3 cells (%) at 0.1 pM, Experiment 2 [4] | Lysis of JJN-3 cells (%) at 1 pM, Experiment 1 [4] | Lysis of JJN-3 cells (%) at 1 pM, Experiment 2 [4] | Lysis of JJN-3 cells (%) at 10 pM, Experiment 1 [4] | Lysis of JJN-3 cells (%) at 10 pM, Experiment 2 [4] | Lysis of JJN-3 cells (%) at 100 pM, Experiment 1 [4] | Lysis of JJN-3 cells (%) at 100 pM, Experiment 2 [4] | further results
21-TCBcv (bispecific antibody, human IgG1, kappa, L234A L235A) heavy 1: not shown heavy 2: EVQLLESGGGLVQPGGSLRLSCAASGFTFSDNAMGWVRQAPGKGLEWVSAISGPGSSTYYADSVKGRFTISRDNSKNTLYLQMNSLRAEDTAVYYCAKVLGWFDYWGQGTLVTVSSASTKGPSVFPLAPSSKSTSGGTAALGCLVEDYFPEPVTVSWNSGALTSGVHTFPAVLQSSGLYSLSSVVTVPSSSLGTQTYICNVNHKPSNTKVDEKVEPKSCDKTHTCPPCPAPEAAGGPSVFLFPPKPKDTLMISRTPEVTCVVVDVSHEDPEVKFNWYVDGVEVHNAKTKPREEQYNSTYRVVSVLTVLHQDWLNGKEYKCKVSNKALGAPIEKTISKAKGQPREPQVCTLPPSRDELTKNQVSLSCAVKGFYPSDIAVEWESNGQPENNYKTTPPVLDSDGSFFLVSKLTVDKSRWQQGNVFSCSVMHEALHNHYTQKSLSLSPGK light 1: EIVLTQSPGTLSLSPGERATLSCRASQSVSEYYLAWYQQKPGQAPRLLIEHASTRATGIPDRFSGSGSGTDFTLTISRLEPEDFAVYYCQQYGYPPDFTFGQGTKVEIKRTVAAPSVFIFPPSDRKLKSGTASVVCLLNNFYPREAKVQWKVDNALQSGNSQESVTEQDSKDSTYSLSSTLTLSKADYEKHKVYACEVTHQGLSSPVTKSFNRGEC light 2: EVQLLESGGGLVQPGGSLRLSCAASGFTFSTYAMNWVRQAPGKGLEWVSRIRSKYNNYATYYADSVKGRFTISRDDSKNTLYLQMNSLRAEDTAVYYCVRHGNFGNSYVSWFAYWGQGTLVTVSSASVAAPSVFIFPPSDEQLKSGTASVVCLLNNFYPREAKVQWKVDNALQSGNSQESVTEQDSKDSTYSLSSTLTLSKADYEKHKVYACEVTHQGLSSPVTKSFNRGEC | 0.0413 nM | 0.0088 nM | 0.004 nM | 0.0084 nM | 0.0971 nM | 0.0421 nM | 0.0539 nM | 0.0387 nM | 0.0836 nM | 0.0384 nM | 0.0189 nM | 0.0191 nM | 0.0464 nM | – | – | – | – | – | – | – | –
22-TCBcv (bispecific antibody, human IgG1, kappa, L234A L235A) heavy 1: not shown heavy 2: EVQLLESGGGLVQPGGSLRLSCAASGFTFSDNAMGWVRQAPGKGLEWVSAISGPGSSTYYADSVKGRFTISRDNSKNTLYLQMNSLRAEDTAVYYCAKVLGWFDYWGQGTLVTVSSASTKGPSVFPLAPSSKSTSGGTAALGCLVEDYFPEPVTVSWNSGALTSGVHTFPAVLQSSGLYSLSSVVTVPSSSLGTQTYICNVNHKPSNTKVDEKVEPKSCDKTHTCPPCPAPEAAGGPSVFLFPPKPKDTLMISRTPEVTCVVVDVSHEDPEVKFNWYVDGVEVHNAKTKPREEQYNSTYRVVSVLTVLHQDWLNGKEYKCKVSNKALGAPIEKTISKAKGQPREPQVCTLPPSRDELTKNQVSLSCAVKGFYPSDIAVEWESNGQPENNYKTTPPVLDSDGSFFLVSKLTVDKSRWQQGNVFSCSVMHEALHNHYTQKSLSLSPGK light 1: EIVLTQSPGTLSLSPGERATLSCRASQSVSSYYLAWYQQKPGQAPRLLISGAGSRATGIPDRFSGSGSGTDFTLTISRLEPEDFAVYYCQQYGYPPDFTFGQGTKVEIKRTVAAPSVFIFPPSDRKLKSGTASVVCLLNNFYPREAKVQWKVDNALQSGNSQESVTEQDSKDSTYSLSSTLTLSKADYEKHKVYACEVTHQGLSSPVTKSFNRGEC light 2: EVQLLESGGGLVQPGGSLRLSCAASGFTFSTYAMNWVRQAPGKGLEWVSRIRSKYNNYATYYADSVKGRFTISRDDSKNTLYLQMNSLRAEDTAVYYCVRHGNFGNSYVSWFAYWGQGTLVTVSSASVAAPSVFIFPPSDEQLKSGTASVVCLLNNFYPREAKVQWKVDNALQSGNSQESVTEQDSKDSTYSLSSTLTLSKADYEKHKVYACEVTHQGLSSPVTKSFNRGEC | 0.0476 nM | 0.0076 nM | 0.0032 nM | 0.0055 nM | 0.0532 nM | 0.0422 nM | 0.0232 nM | 0.0289 nM | 0.0975 nM | 0.0277 nM | 0.0165 nM | 0.0146 nM | 0.056 nM | 36.5% | 4.29% | 24.4% | 73.6% | 41.7% | 56.3% | 53% | Lysis of JJN-3 cells (%) at 1000 pM, Experiment 1 [4]: 90.5%; Lysis of JJN-3 cells (%) at 1000 pM, Experiment 2 [4]: 94.1%; Lysis of JJN-3 cells (%) at 10000 pM, Experiment 1 [4]: 88%; Lysis of JJN-3 cells (%) at 10000 pM, Experiment 2 [4]: 91.2%; Annexin-V positive patient bone marrow myeloma plasma cells (%) at 10 pM [5]: 14.2%; Annexin-V positive patient bone marrow myeloma plasma cells (%) at 100 pM [5]: 14.8%; Annexin-V positive patient bone marrow myeloma plasma cells (%) at 1000 pM [5]: 31%; Annexin-V positive patient bone marrow myeloma plasma cells (%) at 10000 pM [5]: 51.7%; Annexin-V positive patient bone marrow myeloma plasma cells (%) at 30000 pM [5]: 55.7%; Annexin-V positive JJN-3 cells (%) at 0.1 pM, Experiment 2 [6]: 14.8%; Annexin-V positive JJN-3 cells (%) at 1 pM, Experiment 1 [6]: 9.3%; Annexin-V positive JJN-3 cells (%) at 1 pM, Experiment 2 [6]: 15%; Annexin-V positive JJN-3 cells (%) at 10 pM, Experiment 1 [6]: 13.3%; Annexin-V positive JJN-3 cells (%) at 10 pM, Experiment 2 [6]: 15.9%; Annexin-V positive JJN-3 cells (%) at 100 pM, Experiment 1 [6]: 12.5%; Annexin-V positive JJN-3 cells (%) at 100 pM, Experiment 2 [6]: 18.4%; Annexin-V positive JJN-3 cells (%) at 1000 pM, Experiment 1 [6]: 26.1%; Annexin-V positive JJN-3 cells (%) at 1000 pM, Experiment 2 [6]: 27%; Annexin-V positive JJN-3 cells (%) at 10000 pM, Experiment 1 [6]: 22.9%; Annexin-V positive JJN-3 cells (%) at 10000 pM, Experiment 2 [6]: 29.7%
42-TCBcv (bispecific antibody, human IgG1, kappa, L234A L235A) heavy 1: not shown heavy 2: EVQLLESGGGLVQPGGSLRLSCAASGFTFSDNAMGWVRQAPGKGLEWVSAISGPGSSTYYADSVKGRFTISRDNSKNTLYLQMNSLRAEDTAVYYCAKVLGWFDYWGQGTLVTVSSASTKGPSVFPLAPSSKSTSGGTAALGCLVEDYFPEPVTVSWNSGALTSGVHTFPAVLQSSGLYSLSSVVTVPSSSLGTQTYICNVNHKPSNTKVDEKVEPKSCDKTHTCPPCPAPEAAGGPSVFLFPPKPKDTLMISRTPEVTCVVVDVSHEDPEVKFNWYVDGVEVHNAKTKPREEQYNSTYRVVSVLTVLHQDWLNGKEYKCKVSNKALGAPIEKTISKAKGQPREPQVCTLPPSRDELTKNQVSLSCAVKGFYPSDIAVEWESNGQPENNYKTTPPVLDSDGSFFLVSKLTVDKSRWQQGNVFSCSVMHEALHNHYTQKSLSLSPGK light 1: EIVLTQSPGTLSLSPGERATLSCRASQSVSDEYLSWYQQKPGQAPRLLIHSASTRATGIPDRFSGSGSGTDFTLAISRLEPEDFAVYYCQQYGYPPDFTFGQGTKVEIKRTVAAPSVFIFPPSDRKLKSGTASVVCLLNNFYPREAKVQWKVDNALQSGNSQESVTEQDSKDSTYSLSSTLTLSKADYEKHKVYACEVTHQGLSSPVTKSFNRGEC light 2: EVQLLESGGGLVQPGGSLRLSCAASGFTFSTYAMNWVRQAPGKGLEWVSRIRSKYNNYATYYADSVKGRFTISRDDSKNTLYLQMNSLRAEDTAVYYCVRHGNFGNSYVSWFAYWGQGTLVTVSSASVAAPSVFIFPPSDEQLKSGTASVVCLLNNFYPREAKVQWKVDNALQSGNSQESVTEQDSKDSTYSLSSTLTLSKADYEKHKVYACEVTHQGLSSPVTKSFNRGEC | 0.383 nM | 0.0187 nM | 0.0035 nM | 0.0015 nM | 0.0097 nM | 0.0117 nM | 0.0072 nM | 0.0068 nM | 0.0155 nM | 0.0167 nM | 0.0052 nM | 0.0022 nM | 0.0106 nM | 17.6% | 40.3% | 34.9% | 39% | 39.4% | 41.9% | 55.3% | Lysis of JJN-3 cells (%) at 1000 pM, Experiment 1 [4]: 84%; Lysis of JJN-3 cells (%) at 1000 pM, Experiment 2 [4]: 81.1%; Lysis of JJN-3 cells (%) at 10000 pM, Experiment 1 [4]: 92.9%; Lysis of JJN-3 cells (%) at 10000 pM, Experiment 2 [4]: 90.4%; Annexin-V positive patient bone marrow myeloma plasma cells (%) at 10 pM [5]: 19.6%; Annexin-V positive patient bone marrow myeloma plasma cells (%) at 100 pM [5]: 10.5%; Annexin-V positive patient bone marrow myeloma plasma cells (%) at 1000 pM [5]: 30%; Annexin-V positive patient bone marrow myeloma plasma cells (%) at 10000 pM [5]: 39.9%; Annexin-V positive patient bone marrow myeloma plasma cells (%) at 30000 pM [5]: 52.5%; Annexin-V positive JJN-3 cells (%) at 0.1 pM, Experiment 2 [6]: 12.8%; Annexin-V positive JJN-3 cells (%) at 1 pM, Experiment 1 [6]: 11.9%; Annexin-V positive JJN-3 cells (%) at 1 pM, Experiment 2 [6]: 13.5%; Annexin-V positive JJN-3 cells (%) at 10 pM, Experiment 1 [6]: 12.3%; Annexin-V positive JJN-3 cells (%) at 10 pM, Experiment 2 [6]: 13.6%; Annexin-V positive JJN-3 cells (%) at 100 pM, Experiment 1 [6]: 8.62%; Annexin-V positive JJN-3 cells (%) at 100 pM, Experiment 2 [6]: 14.4%; Annexin-V positive JJN-3 cells (%) at 1000 pM, Experiment 1 [6]: 16.8%; Annexin-V positive JJN-3 cells (%) at 1000 pM, Experiment 2 [6]: 21.7%; Annexin-V positive JJN-3 cells (%) at 10000 pM, Experiment 1 [6]: 24.8%; Annexin-V positive JJN-3 cells (%) at 10000 pM, Experiment 2 [6]: 26.9%
